The values below are quoted from earlier work in article PMC12860966.

The data set deals with MMP-9 (Homo sapiens) (UniProt P14780).
Chain of UniProt P14780 (P14780 94-707): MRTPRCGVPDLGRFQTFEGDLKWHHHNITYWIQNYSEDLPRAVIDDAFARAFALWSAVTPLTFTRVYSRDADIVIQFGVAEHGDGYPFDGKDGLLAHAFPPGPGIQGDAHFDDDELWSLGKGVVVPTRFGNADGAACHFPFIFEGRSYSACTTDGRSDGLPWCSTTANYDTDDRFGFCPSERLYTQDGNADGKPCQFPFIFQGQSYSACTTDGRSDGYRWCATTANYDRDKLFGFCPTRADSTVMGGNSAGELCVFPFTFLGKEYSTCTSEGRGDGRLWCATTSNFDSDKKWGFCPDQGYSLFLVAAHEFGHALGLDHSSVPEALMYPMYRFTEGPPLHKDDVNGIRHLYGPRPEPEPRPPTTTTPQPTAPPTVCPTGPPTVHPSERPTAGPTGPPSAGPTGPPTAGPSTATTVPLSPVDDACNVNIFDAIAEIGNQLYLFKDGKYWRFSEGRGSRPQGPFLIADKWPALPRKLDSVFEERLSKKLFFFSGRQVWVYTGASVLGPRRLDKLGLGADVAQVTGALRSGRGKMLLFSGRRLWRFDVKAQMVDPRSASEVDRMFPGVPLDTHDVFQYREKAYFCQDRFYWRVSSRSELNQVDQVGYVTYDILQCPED

As usually defined, the Ki is the dissociation constant of the complex between target and ligand, obtained from inhibition or displacement. Regarding TIMP-1 (from UniProt P01033), the inhibitory constant (Ki) was 3.36 nM.
